Experimental data reported in article PMC3769244.

Test: immunofluorescence, data not shown
Conditions: glycan lost; control: untreated

B1: CLN5: tunicamycin (protein)
parent chain: MAQEVDTAQGAEMRRGAGAARGRASWCWALALLWLAVVPGWSRVSGIPSRRHWPVPYKRFDFRPKPDPYCQAKYTFCPTGSPIPVMEGDDDIEVFRLQAPVWEFKYGDLLGHLKIMHDAIGFRSTLTGKNYTMEWYELFQLGNCTFPHLRPEMDAPFWCNQGAACFFEGIDDVHWKENGTLVQVATISGNMFNQMAKWVKQDNETGIYYETWNVKASPEKGAETWFDSYDCSKFVLRTFNKLAEFGAEFKNIETNYTRIFLYSGEPTYLGNETSVFGPTGNKTLGLAIKRFYYPFKPHLPTKEFLLSLLQIFDAVIVHKQFYLFYNFEYWFLPMKFPFIKITYEEIPLPIRNKTLSGL
  localisation_or_trafficking: changes
